Residue numbers refer to the chain shown, from its start.
B1: single-domain antibody directed against Tenascin-C (TNC) Nb3 (VHH)
VHH: WLQLVESGGGSVQTGGSLRLSCVVSGYTNSIYTLAWFRQAPGKEREGVAAIGSRNGNTYYDASVKDRFTISLDKAKNTVYLQMNDLKPEDTASYYCAAGSSWDLILQAYAYDYWGQGTQVTVSS
modifications: Conjugated to 5 nm colloidal gold in the electron microscopy assay only.
notes: also called C3
B2: single-domain antibody directed against Tenascin-C (TNC) Nb4 (VHH)
VHH: B1 VHH with L2V, G52A, D85G
modifications: Conjugated to 5 nm colloidal gold in the electron microscopy assay only.
notes: Dromedary VHH made in the E. coli WK6 periplasm and purified by IMAC; Conjugated to 5 nm colloidal gold for electron microscopy; also called C4

Experiments:
[1] = target: T1, recombinant murine TNC (mTNC) (murine); test: isothermal fluorescence titration, fluorescently tagged mTNC 700 nM, Nb 500-3500 nM
T1 construct: also called recombinant mTNC

[2] = target: T2, recombinant human Tenascin-C (rhTNC) (human); test: indirect ELISA on rhTNC, Nb dilutions 5x10^-7 M to 5x10^-12 M
T2 construct: It was purified on a Ni column, but no tag is described; also called recombinant hTNC

Binder	Kd [1]	EC50 [2]
B1	0.711 µM	~0.01 µM
B2	0.537 µM	~0.005 µM

From EP4047016A1 (Université de Strasbourg, dated 2022)
